Data on 11 proteins can be found in paper PMC10524254.

One series can be described thus: surface FACS. The note with it: glycan lost.
Series [1] is described as follows: dSTORM, Hopkins index and H-function, TMD8. The note with it: glycan lost; control: untreated / control cells.
The nature of series [2]: dual-color iSIM, Pearson correlation, TMD8. The note with it: glycan lost; control: wild type IgM.
Series [3] is described as follows: IgM-TLR9 proximity ligation assay. The note with it: glycan lost; control: wild type IgM.
Series [4] is described as follows: IgM-LAMP1 proximity ligation assay. The note with it: glycan lost; control: DMSO.
The nature of series [5]: anti-IgM Fab-pHrodo internalization, flow cytometry. The settings on record: glycan lost; control: DMSO. (Flow cytometry measures light scatter and fluorescence of single cells or particles in a stream.)
Series [6] can be described thus: CD79A-BioID2 proximity labelling, SILAC MS, TMD8. The note with it: glycan lost; control: DMSO.

B1: CD79B: N73Q (protein)
parent chain: MARLALSPVPSHWMVALLLLLSAEPVPAARSEDRYRNPKGSACSRIWQSPRFIARKRGFTVKMHCYMNSASGNVSWLWKQEMDENPQQLKLEKGRMEESQNESLATLTIQGIRFEDNGIYFCQQKCNNTSEVYQGCGTELRVMGFSTLAQLKQRNTLKDGIIMIQTLLIILFIIVPIFLLLDKDDSKAGMEEDHTYEGLDIDQTATYEDIVTLRTGEVKWSVGEHPGQE
For the protein B1, the localisation_or_trafficking result in “surface FACS” (control: wild type CD79B) was “no change”.

B2: CD79B: triple mutant (N73Q, N101Q, N127Q) (protein)
parent chain: MARLALSPVPSHWMVALLLLLSAEPVPAARSEDRYRNPKGSACSRIWQSPRFIARKRGFTVKMHCYMNSASGNVSWLWKQEMDENPQQLKLEKGRMEESQNESLATLTIQGIRFEDNGIYFCQQKCNNTSEVYQGCGTELRVMGFSTLAQLKQRNTLKDGIIMIQTLLIILFIIVPIFLLLDKDDSKAGMEEDHTYEGLDIDQTATYEDIVTLRTGEVKWSVGEHPGQE
Turning to B2, the localisation_or_trafficking result in “surface FACS” (control: wild type CD79B) is recorded as “no change”.

B3: CD79B: N101Q (protein)
parent chain: MARLALSPVPSHWMVALLLLLSAEPVPAARSEDRYRNPKGSACSRIWQSPRFIARKRGFTVKMHCYMNSASGNVSWLWKQEMDENPQQLKLEKGRMEESQNESLATLTIQGIRFEDNGIYFCQQKCNNTSEVYQGCGTELRVMGFSTLAQLKQRNTLKDGIIMIQTLLIILFIIVPIFLLLDKDDSKAGMEEDHTYEGLDIDQTATYEDIVTLRTGEVKWSVGEHPGQE
For the protein B3, the localisation_or_trafficking result in the series “surface FACS” (control: wild type CD79B) was “no change”.

B4: IgM: quadruple mutant (N46Q, N209Q, N272Q, N279Q) (protein)
parent chain: GSASAPTLFPLVSCENSPSDTSSVAVGCLAQDFLPDSITFSWKYKNNSDISSTRGFPSVLRGGKYAATSQVLLPSKDVMQGTDEHVVCKVQHPNGNKEKNVPLPVIAELPPKVSVFVPPRDGFFGNPRKSKLICQATGFSPRQIQVSWLREGKQVGSGVTTDQVQAEAKESGPTTYKVTSTLTIKESDWLGQSMFTCRVDHRGLTFQQNASSMCVPDQDTAIRVFAIPPSFASIFLTKSTKLTCLVTDLTTYDSVTISWTRQNGEAVKTHTNISESHPNATFSAVGEASICEDDWNSGERFTCTVTHTDLPSPLKQTISRPKGVALHRPDVYLLPPAREQLNLRESATITCLVTGFSPADVFVQWMQRGQPLSPEKYVTSAPMPEPQAPGRYFAHSILTVSEEEWNTGETYTCVVAHEALPNRVTERTVDKSTEGEVSADEEGFENLWATASTFIVLFLLSLFYSTTVTLFKVK
On to B4, for which, in “surface FACS” (control: wild type IgM), the localisation_or_trafficking entry is “no change”.

B5: IgM: STT3B knockout (protein)
parent chain: GSASAPTLFPLVSCENSPSDTSSVAVGCLAQDFLPDSITFSWKYKNNSDISSTRGFPSVLRGGKYAATSQVLLPSKDVMQGTDEHVVCKVQHPNGNKEKNVPLPVIAELPPKVSVFVPPRDGFFGNPRKSKLICQATGFSPRQIQVSWLREGKQVGSGVTTDQVQAEAKESGPTTYKVTSTLTIKESDWLGQSMFTCRVDHRGLTFQQNASSMCVPDQDTAIRVFAIPPSFASIFLTKSTKLTCLVTDLTTYDSVTISWTRQNGEAVKTHTNISESHPNATFSAVGEASICEDDWNSGERFTCTVTHTDLPSPLKQTISRPKGVALHRPDVYLLPPAREQLNLRESATITCLVTGFSPADVFVQWMQRGQPLSPEKYVTSAPMPEPQAPGRYFAHSILTVSEEEWNTGETYTCVVAHEALPNRVTERTVDKSTEGEVSADEEGFENLWATASTFIVLFLLSLFYSTTVTLFKVK
For the protein B5, in series [1], the “other: surface clustering” value was “decreases”.

B6: IgM: N46 mutant (protein)
parent chain: GSASAPTLFPLVSCENSPSDTSSVAVGCLAQDFLPDSITFSWKYKNNSDISSTRGFPSVLRGGKYAATSQVLLPSKDVMQGTDEHVVCKVQHPNGNKEKNVPLPVIAELPPKVSVFVPPRDGFFGNPRKSKLICQATGFSPRQIQVSWLREGKQVGSGVTTDQVQAEAKESGPTTYKVTSTLTIKESDWLGQSMFTCRVDHRGLTFQQNASSMCVPDQDTAIRVFAIPPSFASIFLTKSTKLTCLVTDLTTYDSVTISWTRQNGEAVKTHTNISESHPNATFSAVGEASICEDDWNSGERFTCTVTHTDLPSPLKQTISRPKGVALHRPDVYLLPPAREQLNLRESATITCLVTGFSPADVFVQWMQRGQPLSPEKYVTSAPMPEPQAPGRYFAHSILTVSEEEWNTGETYTCVVAHEALPNRVTERTVDKSTEGEVSADEEGFENLWATASTFIVLFLLSLFYSTTVTLFKVK
Regarding B6, the “other: plasma-membrane colocalisation” value in series [2] is reported as “increases”. Also, the “other: proximity (My-T-BCR formation)” value in series [3] is reported as “decreases”.

B7: IgM: N209 mutant (protein)
parent chain: GSASAPTLFPLVSCENSPSDTSSVAVGCLAQDFLPDSITFSWKYKNNSDISSTRGFPSVLRGGKYAATSQVLLPSKDVMQGTDEHVVCKVQHPNGNKEKNVPLPVIAELPPKVSVFVPPRDGFFGNPRKSKLICQATGFSPRQIQVSWLREGKQVGSGVTTDQVQAEAKESGPTTYKVTSTLTIKESDWLGQSMFTCRVDHRGLTFQQNASSMCVPDQDTAIRVFAIPPSFASIFLTKSTKLTCLVTDLTTYDSVTISWTRQNGEAVKTHTNISESHPNATFSAVGEASICEDDWNSGERFTCTVTHTDLPSPLKQTISRPKGVALHRPDVYLLPPAREQLNLRESATITCLVTGFSPADVFVQWMQRGQPLSPEKYVTSAPMPEPQAPGRYFAHSILTVSEEEWNTGETYTCVVAHEALPNRVTERTVDKSTEGEVSADEEGFENLWATASTFIVLFLLSLFYSTTVTLFKVK
With B7, the “other: plasma-membrane colocalisation” value in series [2] is “increases”. For the same protein, in series [3], the “other: proximity (My-T-BCR formation)” value was “decreases”.

B8: IgM: N209Q (protein)
parent chain: GSASAPTLFPLVSCENSPSDTSSVAVGCLAQDFLPDSITFSWKYKNNSDISSTRGFPSVLRGGKYAATSQVLLPSKDVMQGTDEHVVCKVQHPNGNKEKNVPLPVIAELPPKVSVFVPPRDGFFGNPRKSKLICQATGFSPRQIQVSWLREGKQVGSGVTTDQVQAEAKESGPTTYKVTSTLTIKESDWLGQSMFTCRVDHRGLTFQQNASSMCVPDQDTAIRVFAIPPSFASIFLTKSTKLTCLVTDLTTYDSVTISWTRQNGEAVKTHTNISESHPNATFSAVGEASICEDDWNSGERFTCTVTHTDLPSPLKQTISRPKGVALHRPDVYLLPPAREQLNLRESATITCLVTGFSPADVFVQWMQRGQPLSPEKYVTSAPMPEPQAPGRYFAHSILTVSEEEWNTGETYTCVVAHEALPNRVTERTVDKSTEGEVSADEEGFENLWATASTFIVLFLLSLFYSTTVTLFKVK
In the case of B8, in “surface FACS” (control: wild type IgM), the localisation_or_trafficking result is on record as “no change”.

B9: IgM: NGI-1 (protein)
parent chain: GSASAPTLFPLVSCENSPSDTSSVAVGCLAQDFLPDSITFSWKYKNNSDISSTRGFPSVLRGGKYAATSQVLLPSKDVMQGTDEHVVCKVQHPNGNKEKNVPLPVIAELPPKVSVFVPPRDGFFGNPRKSKLICQATGFSPRQIQVSWLREGKQVGSGVTTDQVQAEAKESGPTTYKVTSTLTIKESDWLGQSMFTCRVDHRGLTFQQNASSMCVPDQDTAIRVFAIPPSFASIFLTKSTKLTCLVTDLTTYDSVTISWTRQNGEAVKTHTNISESHPNATFSAVGEASICEDDWNSGERFTCTVTHTDLPSPLKQTISRPKGVALHRPDVYLLPPAREQLNLRESATITCLVTGFSPADVFVQWMQRGQPLSPEKYVTSAPMPEPQAPGRYFAHSILTVSEEEWNTGETYTCVVAHEALPNRVTERTVDKSTEGEVSADEEGFENLWATASTFIVLFLLSLFYSTTVTLFKVK
Consider B9, for which the localisation_or_trafficking result in series [4] and in series [5] was “decreases” in each case. For the same protein, the “other: surface clustering” value in series [1] was “decreases”.

B10: CD79A: N112Q (protein)
parent chain: MPGGPGVLQALPATIFLLFLLSAVYLGPGCQALWMHKVPASLMVSLGEDAHFQCPHNSSNNANVTWWRVLHGNYTWPPEFLGPGEDPNGTLIIQNVNKSHGGIYVCRVQEGNESYQQSCGTYLRVRQPPPRPFLDMGEGTKNRIITAEGIILLFCAVVPGTLLLFRKRWQNEKLGLDAGDEYEDENLYEGLNLDDCSMYEDISRGLQGTYQDVGSLNIGDVQLEKP
With B10, the localisation_or_trafficking entry in “surface FACS” (control: wild type CD79A) is given as “no change”.

B11: CD79A: NGI-1 (protein)
parent chain: MPGGPGVLQALPATIFLLFLLSAVYLGPGCQALWMHKVPASLMVSLGEDAHFQCPHNSSNNANVTWWRVLHGNYTWPPEFLGPGEDPNGTLIIQNVNKSHGGIYVCRVQEGNESYQQSCGTYLRVRQPPPRPFLDMGEGTKNRIITAEGIILLFCAVVPGTLLLFRKRWQNEKLGLDAGDEYEDENLYEGLNLDDCSMYEDISRGLQGTYQDVGSLNIGDVQLEKP
B11: the “other: proximity” value in series [6] is reported as “increases”.
